Results reported in US20250188133A1, “CHIMERIC BACTERIOCINS AND METHOD FOR THE CONTROL OF PSEUDOMONAS” (priority 2022, published 2025).

Key:
P. aeruginosa ATCC 19660 [1] = assay: murine keratitis model, cytotoxic strain (C57BL/6 mice); type: in vivo; conditions: for viable bacteria isolated, one mouse: only mouse with viable bacteria
Description: The inbred mice of C57BL/6 strain of both sexes in equivalent numbers were used for the research. 2-6 months old, adult female and adult male mice were purchased from the Vilnius University vivarium of laboratory animals. The animals throughout the period of the experiment were given standard chow and drinking water ad libitum. Animals were housed in the individual plastic cages in a 12 h light/dark cycle at 21-23° C. All regulated procedures on living animals were approved by The Lithuanian Ethics Committee of Biomedical Research (Protocol no. B1-442) and were carried out in accordance with the European Union legislation of OECD (directive 2010/63/EU). The experiments were carried out in Biological research center of Lithuanian University of Health Sciences.
For P. aeruginosa infection and keratitis induction the mice were anesthetized by Ketamine and Xylazine 90:9 mg/kg intraperitoneal injection. The cornea of the left eye of each mouse was visualized under a stereoscopic microscope, and three 1 mm scratches were made using a sterile 25 gauge needle. A 10 μL aliquot containing 4×10^6 cells of P. aeruginosa ATCC 19660 (cytotoxic strain) or PAO1 ATCC 15692 (invasive strain) was applied to the corneal surface. Depending on the experiment, the treatment was started 30 min or 6 h post infection. 10 μl aliquot containing 0.14 mg of tobramycin or 20 μg of S5-PmnH (both containing 0.5% hydroxypropyl methylcellulose (HPMC)) or PBS containing 0.5% HPMC was applied as one drop of substance to the each eye. HPMC is used as artificial tears and was used in order to thicken the tears film and prolong the presence of the applied product on the surface of the cornea. The treatment was continued for five days twice daily. Mice were euthanized by cervical dislocation 1, 3, 5 days post infection, and the eyeballs were collected and homogenized for viable bacteria count.
The eyes were examined and photographed with a dissection microscope equipped with a digital camera at 1, 3 and 5 dpi to monitor the disease progression. At 1, 3 and 5 dpi disease severity was visually graded by using an established corneal damage scale: 0, the pupil was partially or fully covered by clear or slight opacity; +1, the anterior segment was partially or fully covered by slight opacity; +2, the pupil was partially or fully covered by dense opacity; +3, the entire anterior segment was covered by dense opacity; and +4, corneal perforation^40.
Histopathology experiments were carried out at Lithuanian University of Health Sciences, Department of Veterinary Pathobiology of Veterinary Academy. One randomly chosen mice of each study group was used for histopathology experiments. Enucleated eyes were preserved in 10% formaldehyde. Eyes were paraffin-embedded, cut into 3-μm-thick sections, deparaffinised, rehydrated and used for preparation of hematoxylin/eosin stained samples.

P. aeruginosa ATCC 19660 [2] = assay: MIC by agar dilution method; type: cell-based; conditions: against ATCC 19660; CAA agar with 0.1 mg/ml BSA
Description: (§1) Aliquots of melted CAA (1.5% agar) medium (final volume—25 ml) pre-wormed to 51° C. were supplemented with 0.1 mg/ml BSA and with appropriate amounts of pyocin stock solutions of different concentrations (concentrations lowered by a factor of 2). Aliquots were poured into Petri plates. P. aeruginosa cultures were grown from single colony in CAA medium at 37° C., 200 rpm until OD595=0.2 and diluted to 10^7 CFU/ml in CAA medium. 1 μL of bacteria suspension were applied in three replicates on each test plate. Plates were left to incubate in 37° C. overnight. The determined MIC is a concentration of pyocin, where no confluent bacterial growth is observed.

P. aeruginosa PAO1 = assay: MIC by agar dilution method; type: cell-based; conditions: against PAO1; CAA agar with 0.1 mg/ml BSA
Description: as §1

P. aeruginosa ATCC 27853 = assay: murine lung colonization and treatment (CD1 mice); type: in vivo; conditions: 5 h post infection
Description: CD1 male mice were supplied by Charles River (Margate, UK) and were specific pathogen free. Mice were 11 to 15 g on receipt at the facility and were allowed to acclimatize for at least 7 days.
P. aeruginosa ATCC 27853 was recovered from long-term storage (−80° C.) and cultured on cystine-lactose-electrolyte-deficient (CLED) agar at 37° C. under aerobic conditions for approximately 16-24 h. 20 ml of Mueller Hinton broth was inoculated with a single well isolated colony and cultured overnight at 37° C. with shaking at 300 rpm65. The overnight broth was diluted 1:100 in Mueller Hinton broth and 100 ml was cultured in a baffle flask for ˜6 h at 37° C. with shaking at 300 rpm until the broth OD was ˜0.6 (˜mid-exponential phase). 20 ml of culture was centrifuged at 2465 g for 10 minutes and washed in PBS. The pellet was suspended in PBS and the OD600 adjusted to 0.67 (˜2.6×10^8 CFU/ml). The study inoculum was prepared from this by appropriate dilution with PBS. The inoculum concentration was confirmed by quantitative culture on Pseudomonas Selective Agar (PSA). The inoculum concentration for the study was 1.47×10^7 CFU/ml (5.87×10^5 CFU/mouse).
Mice were infected under temporary inhaled 3% isoflurane anesthesia by intranasal (IN) instillation with 40 μl of the inoculum suspension split as 20 μl/nostril.
1 hour post infection 6 mice were sacrificed in order to evaluate the pre-treatment burden in lungs. Treatments were administered IN once at 1 h post infection (50 μl split to 25 μl/nares). Three treatment groups consisting of six mice each were administered S5-PmnH (2.5, 25 and 250 μg). The fourth group of mice (n=6) was administered 200 μg Tobramycin (40 mg/ml injection solution, Hospira UK Ltd, diluted 10 times). The study was terminated at 5 hours post infection for all animals. The clinical conditions and weights were assessed and animals were immediately euthanized using an overdose of pentobarbitone. Following confirmation of death, the lungs were excised and homogenized in ice cold sterile phosphate buffered saline using a Precellys bead beater. The homogenates were quantitatively cultured onto PSA agar and incubated at 37° C. for 24 hours before colonies were counted.

[3] = treatment started 30 min post infection
[4] = treatment started 6 h post infection, 1 dpi

B1: S5-PmnH (protein)
chain: MSNDNEVPGSMVIVAQGPDDQYAYEVPPIDSAAVAGNMFGDLIQREIYLQKNIYYPVRSIFEQGTKEKKEINKKVSDQVDGLLKQITQGKREATRQERVDVMSAVLHKMESDLEGYKKTFTKGPFIDYEKQSSLSIYEAWVKIWEKNSWEERKKYPFQQLVRDELERAVAYYKQDSLSEAVKVLRQELNKQKALKEKEDLSQLERDYRTRKANLEMKVQSELDQAGSALPPLVSPTPEQWLERATRLVTQAIADKKQLQTTNNTLIKNSPTPLEKQKAIYNGELLVDEIASLQARLVKLNAETTRRRTEKELTPDEKAAYTDAVSFVSTANEQMLQKYGANLSKVAQDMQAEIAGKKVRSYAEAMATFEKISANPAMKLNALDTQAVVDALNALDKASFADNITRLGKAFGVVGKVVQAEAIREKTVSGFQTGDWKPLMLELEAMAVGTGAGILLATSMAFFFPVFASAAAGVVVVALMMAATAAYFDAAKVDEINNLILN
modifications: Chimeric S5-PmnH
- histopathology of infected treated eyes (P. aeruginosa ATCC 19660 [1]; [3]): Only weak oedema in the corneal stroma
- signs of disease (visual inspection, clinical score) (P. aeruginosa ATCC 19660 [1]; [3]): No signs of disease were observed in majority of samples
- viable bacteria isolated from infected eyes (P. aeruginosa ATCC 19660 [1]; treatment started 30 min post infection, twice daily, 1, 3 or 5 dpi, 20 μg S5-PmnH or 0.14 mg tobramycin per eye): no viable P. aeruginosa were isolated
- clinical score evaluation (P. aeruginosa ATCC 19660 [1]; treatment started 6 h post infection, 1 and 3 dpi, two S5-PmnH-treated and one tobramycin-treated mice): Only mild disease signs were observed
- histopathology of infected treated eyes (P. aeruginosa ATCC 19660 [1]; [4]): signs of acute inflammation of cornea
- viable bacteria isolated, one mouse (P. aeruginosa ATCC 19660 [1]; [4]): 3.6 log10 CFU/cornea
- histopathology of infected treated eyes (P. aeruginosa ATCC 19660 [1]; treatment started 6 h post infection, 3 and 5 dpi): no marked aberrations
- viable bacteria isolated, one mouse (P. aeruginosa ATCC 19660 [1]; treatment started 6 h post infection, 3 dpi): 5 log10 CFU/cornea
- clinical score evaluation (P. aeruginosa ATCC 19660 [1]; treatment started 6 h post infection, 5 dpi): all corneas were completely clear
- viable bacteria isolated (P. aeruginosa ATCC 19660 [1]; treatment started 6 h post infection, 5 dpi, three mice): No viable bacteria were isolated
- MIC determined by agar dilution method (P. aeruginosa ATCC 19660 [2]): 32 µg/mL
- MIC determined by agar dilution method (P. aeruginosa PAO1): 4 µg/mL
- reduction of lung burden vs vehicle (P. aeruginosa ATCC 27853; 2.5 μg/mouse IN once 1 h post infection): 2.1 log10 CFU/g
- reduction of burden below the level of stasis (pre-treatment) (P. aeruginosa ATCC 27853; 2.5 μg/mouse IN once): 0.58 log10 CFU/g
- reduction of lung burden vs vehicle (P. aeruginosa ATCC 27853; 25 μg/mouse IN once 1 h post infection): 2.31 log10 CFU/g
- reduction of burden below the level of stasis (pre-treatment) (P. aeruginosa ATCC 27853; 25 μg/mouse IN once): 0.78 log10 CFU/g
- reduction of lung burden vs vehicle (P. aeruginosa ATCC 27853; 250 μg/mouse IN once 1 h post infection): 2.66 log10 CFU/g
- reduction of burden below the level of stasis (pre-treatment) (P. aeruginosa ATCC 27853; 250 μg/mouse IN once): 1.13 log10 CFU/g
